Assay results reported in patent US10125184B2, “Apolipoprotein E polypeptides and their use” (priority 2011, dated 2018).

B1: hEP: human apoE dual-domain peptide: helix 4 of N-terminal domain plus major lipid-binding region; expressed in bacteria (protein)
peptide: EELRVRLASHLRKLRKRLLRDADDLQKRLAVYEEQAQQIRLQAEAFQARLKSWFEPLVEDM

What was measured:
[1] = test system: JFH1 HCVcc; test: HCVcc binding assay (real-time PCR of vRNA, Huh7.5.1 cells); type: cell-based, Hepatitis C virus; conditions: 2.7 μM, 2 hours at 4° C., relative to scrambled peptide
Procedure: (§1) FIGS. 5A-5D. hEP inhibits HCV entry at the attachment step. (A) HCVcc-luc was first mixed with either scrambled peptide or hEP-2 (20 μg/ml) for one hour at room temperature. In Group 1, mixed virus was directly added to Huh7.5.1 cells, whereas in Group 2, virus was purified through ultracentrifuge at 28,000×g for 4 hours in order to remove peptide, and then used to infect Huh7.5.1 cells. **p<0.005. (B) The kinetics of hEP- and bafilomycin A1-mediated inhibition were determined by time-of-addition assays, as described in the examples section. Fitted lines represent sigmoidal time-dependent curves (mean of n=3; error bars, s.d.). […] Heparin (200 μg/ml), anti-CD81 monoclonal antibody (5 μg/ml), hEP (20 μg/ml), or bafilomycin A1 (10 nM) were present in the media either continuously, during the 4° C. incubation only (attachment), or during the 37° C. incubation phase only (post-attachment). % Inhibition was calculated as 100-percent infection relative to control infections containing DMSO or an isotype antibody control containing 0.01% sodium azide (for anti-CD81 only) (mean of n=3; error bars, s.d.). (D) The effects of hEP (2.7 μM) or scrambled peptide on HCV binding were determined as described in the examples section. Results were calculated as relative RNA copies with numbers obtained from the scrambled peptide treated wells set to 100 (mean of n=3; error bars, s.d.). **p<0.005. […]

[2] = test system: HCVcc-luc; test: Attachment versus post-attachment inhibition assay; type: cell-based, Hepatitis C virus; conditions: heparin 200 μg/ml, anti-CD81 5 μg/ml, hEP 20 μg/ml, bafilomycin A1 10 nM
Procedure: FIGS. 5A-5D. hEP inhibits HCV entry at the attachment step. (A) HCVcc-luc was first mixed with either scrambled peptide or hEP-2 (20 μg/ml) for one hour at room temperature. In Group 1, mixed virus was directly added to Huh7.5.1 cells, whereas in Group 2, virus was purified through ultracentrifuge at 28,000×g for 4 hours in order to remove peptide, and then used to infect Huh7.5.1 cells. **p<0.005. (B) The kinetics of hEP- and bafilomycin A1-mediated inhibition were determined by time-of-addition assays, as described in the examples section. Fitted lines represent sigmoidal time-dependent curves (mean of n=3; error bars, s.d.). (C) HCVcc-Luc was added to Huh7.5.1 cells at 4° C. and incubated for 1.5 hrs. Unbound virus was removed by 2 washes with cold media, fresh media was added, and the cells were shifted to 37° C. to allow synchronous infection to proceed. Heparin (200 μg/ml), anti-CD81 monoclonal antibody (5 μg/ml), hEP (20 μg/ml), or bafilomycin A1 (10 nM) were present in the media either continuously, during the 4° C. incubation only (attachment), or during the 37° C. incubation phase only (post-attachment). % Inhibition was calculated as 100-percent infection relative to control infections containing DMSO or an isotype antibody control containing 0.01% sodium azide (for anti-CD81 only) (mean of n=3; error bars, s.d.). (D) The effects of hEP (2.7 μM) or scrambled peptide on HCV binding were determined as described in the examples section. Results were calculated as relative RNA copies with numbers obtained from the scrambled peptide treated wells set to 100 (mean of n=3; error bars, s.d.). **p<0.005.
To investigate the mechanistic action of hEP, three sets of experiments were conducted. First, hEP-2 (SEQ ID NO: 9) or scrambled peptide-treated HCVcc were purified through ultracentrifugation to remove the peptide and then used to infect naïve Huh7.5.1 cells. […] Second, to determine the kinetics of inhibition, a time-of-addition experiment was conducted. HCV remained sensitive to bafilomycin A1, a fusion inhibitor that prevents endosome acidification, until 3 hours after the 37° C. temperature shift (FIG. 5B), which is consistent with previous reports (Koutsoudakis et al., J Virol 2006; 80:5308-5320). […] In order to determine whether hEP-2 (SEQ ID NO: 9) blocks infection at the initial attachment step or a downstream event in the HCV entry process, hEP-2 (SEQ ID NO: 9) was either added together with HCVcc to cells during the 4° C. attachment step only, and then removed prior to shifting the temperature to 37° C., or added only after the temperature shift. As a positive control, hEP-1 was present during the entire course of the experiment. […] Finally, the direct binding of virions to cell surface was measured using a real-time PCR based assay.

[3] = test system: HCVcc-luc; test: Anti-HCV activity after pre-incubation of the peptide in cell culture; type: cell-based, Hepatitis C virus; conditions: 20 μg/ml, 24 hours in culture before HCVcc-luc
[4] = test system: HCVpp; test: HCVpp infection of Huh7.5.1 cells; type: cell-based, Hepatitis C virus (H77, JFH1, J6 envelope)
[5] = test system: CD81; test: CD81 level on Huh7.5.1 cells by flow cytometry; type: cell-based
Procedure: (§2) FIGS. 4A-4C. (A) Huh7.5.1 cells seeded in a 12-well plate were treated with hEP-2 (20 μg/ml) for indicated time periods. Cells were stained with a mouse IgG (istotype control) or the anti-LDLR antibody followed by flow cytometric analysis. An overlay of 7 histograms is presented and the Δ median fluorescence intensity (ΔMFI, LDLR stain minus isotype control stain) of each sample is indicated to the upper right of the figure. (B) Cells were stained with anti-CD81 antibody and analyzed similarly as in A. (C) Immunonblots of SR-BI, CLDN1, and OCLN in the presence of hEP-2 or scrambled peptide.

[6] = test system: OCLN; test: Immunoblot of OCLN; type: cell-based
Procedure: as §2

[7] = test system: HCVcc-luc; test: Time-of-addition assay; type: cell-based, Hepatitis C virus; conditions: 20 μg/ml (2.7 μM)
Procedure: as §1

[8] = test system: CLDN1; test: Immunoblot of CLDN1; type: cell-based
Procedure: as §2

[9] = test system: SR-BI; test: Immunoblot of SR-BI; type: cell-based
Procedure: as §2

Molecule	Amount of viral RNA (vRNA) bound to cells [1]	Inhibition when present after the temperature shift only (post-attachment) [2]	Inhibition when present during the 4° C. attachment step only [2]	Anti-HCV activity after being left in the culture [3]	Effect on infectivity of HCVpp [4]	Effect on level of CD81 [5]	Effect on level of OCLN [6]	Activity when added after the temperature shift (time of addition) [7]	Effect on level of CLDN1 [8]	Effect on level of SR-BI [9]
EELRVRLASHLRKLRKRLLRDADDLQKRLAVYEEQAQQIRLQAEAFQARLKSWFEPLVEDM [hEP-1]	decreased significantly	very little inhibition	strongly inhibited	–	–	–	–	–	–	–
B1	–	–	–	largely retained	did not affect the infectivity	did not affect	did not affect	disappeared almost completely	did not affect	did not affect
